This note sets out measurements from paper PMC11599015 (Viruses, 2024).

As usually defined, the Kd is the free concentration of one partner at which half of the binding sites on the other are occupied at equilibrium, for simple one-to-one binding. Usually stoichiometry N stands for a count of units in the complex or per binding partner.

The test concerns the target recombinant circular RABV N10-RNA complex purified from insect cells (phosphorylated) (rabies virus (RABV), UniProt Q8JXF6 1-450). Description: SPR. As to conditions: both partners purified.

recombinant circular RABV N10-RNA complex purified from insect cells (phosphorylated), sequence (Q8JXF6 whole entry, one chain of several): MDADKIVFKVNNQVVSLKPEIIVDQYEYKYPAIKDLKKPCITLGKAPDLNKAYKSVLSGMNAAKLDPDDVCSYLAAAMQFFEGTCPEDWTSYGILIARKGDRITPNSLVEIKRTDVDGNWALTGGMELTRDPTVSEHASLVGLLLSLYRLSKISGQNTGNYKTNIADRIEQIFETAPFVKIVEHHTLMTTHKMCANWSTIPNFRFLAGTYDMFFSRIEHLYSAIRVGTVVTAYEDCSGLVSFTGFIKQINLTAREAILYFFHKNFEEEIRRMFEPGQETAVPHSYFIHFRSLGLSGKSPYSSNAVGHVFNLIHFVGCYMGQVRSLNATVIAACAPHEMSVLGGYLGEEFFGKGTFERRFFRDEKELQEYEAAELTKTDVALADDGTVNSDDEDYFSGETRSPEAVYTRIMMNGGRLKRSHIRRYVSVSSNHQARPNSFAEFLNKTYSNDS

B1: C-terminal domain of RABV phosphoprotein P (PCTD) (domain or fragment)
chain: WSATNEEDDLSVEAEIAHQIAESFSKKYKFPSRSSGIFLYNFEQLKMNLDDIVKEAKNVPGVTRLAHDGSKIPLRCVLGWVALANSKKFQLLVEADKLSKIMQDDLNRYTSC
As to B1, the Kd was 160 ± 20 nM and the “stoichiometry N” value was found to be 2 ± 0.2.
